Measurements as given in US9579300.

What was measured:
[1] = biological target: purified αVβ3 integrin (UniProt P06756); assay: [125I]-T4 radioligand displacement on purified αVβ3, native gel band intensity; SC7312 at 8 µg/ml (figure legend; Example 17 prints 59%)
[2] = biological target: purified αVβ3 integrin (UniProt P06756); assay: [125I]-T4 radioligand displacement on purified αVβ3, native gel band intensity; SC7312 at 2 µg/ml
[3] = biological target: purified αVβ3 integrin (UniProt P06756); assay: [125I]-T4 radioligand displacement on purified αVβ3, native gel band intensity; SC7312 at 4 µg/ml
[4] = biological target: purified αVβ3 integrin (UniProt P06756); assay: [125I]-T4 radioligand displacement on purified αVβ3, native gel band intensity; SC7312 at 1 µg/ml
[5] = biological target: purified αVβ3 integrin (UniProt P06756); assay: [125I]-T4 radioligand displacement on purified αVβ3, native gel band intensity; SC7312 at 8 µg/ml
[6] = biological target: purified αVβ3 integrin (UniProt P06756); assay: [125I]-T4 radioligand displacement on purified αVβ3, native gel band intensity; LM609 at 4 µg/ml
[7] = biological target: purified αVβ3 integrin (UniProt P06756); assay: [125I]-T4 radioligand displacement on purified αVβ3, native gel band intensity; LM609 at 2 µg/ml
[8] = biological target: purified αVβ3 integrin (UniProt P06756); assay: [125I]-T4 radioligand displacement on purified αVβ3, native gel band intensity; LM609 at 8 µg/ml
[9] = biological target: purified αVβ3 integrin (UniProt P06756); assay: [125I]-T4 radioligand displacement on 2 µg purified αVβ3, native gel band intensity; LM609 at 1 µg/ml

Sequence of UniProt P06756 (P06756 31-1048, form in doubt, chain 1 of 2): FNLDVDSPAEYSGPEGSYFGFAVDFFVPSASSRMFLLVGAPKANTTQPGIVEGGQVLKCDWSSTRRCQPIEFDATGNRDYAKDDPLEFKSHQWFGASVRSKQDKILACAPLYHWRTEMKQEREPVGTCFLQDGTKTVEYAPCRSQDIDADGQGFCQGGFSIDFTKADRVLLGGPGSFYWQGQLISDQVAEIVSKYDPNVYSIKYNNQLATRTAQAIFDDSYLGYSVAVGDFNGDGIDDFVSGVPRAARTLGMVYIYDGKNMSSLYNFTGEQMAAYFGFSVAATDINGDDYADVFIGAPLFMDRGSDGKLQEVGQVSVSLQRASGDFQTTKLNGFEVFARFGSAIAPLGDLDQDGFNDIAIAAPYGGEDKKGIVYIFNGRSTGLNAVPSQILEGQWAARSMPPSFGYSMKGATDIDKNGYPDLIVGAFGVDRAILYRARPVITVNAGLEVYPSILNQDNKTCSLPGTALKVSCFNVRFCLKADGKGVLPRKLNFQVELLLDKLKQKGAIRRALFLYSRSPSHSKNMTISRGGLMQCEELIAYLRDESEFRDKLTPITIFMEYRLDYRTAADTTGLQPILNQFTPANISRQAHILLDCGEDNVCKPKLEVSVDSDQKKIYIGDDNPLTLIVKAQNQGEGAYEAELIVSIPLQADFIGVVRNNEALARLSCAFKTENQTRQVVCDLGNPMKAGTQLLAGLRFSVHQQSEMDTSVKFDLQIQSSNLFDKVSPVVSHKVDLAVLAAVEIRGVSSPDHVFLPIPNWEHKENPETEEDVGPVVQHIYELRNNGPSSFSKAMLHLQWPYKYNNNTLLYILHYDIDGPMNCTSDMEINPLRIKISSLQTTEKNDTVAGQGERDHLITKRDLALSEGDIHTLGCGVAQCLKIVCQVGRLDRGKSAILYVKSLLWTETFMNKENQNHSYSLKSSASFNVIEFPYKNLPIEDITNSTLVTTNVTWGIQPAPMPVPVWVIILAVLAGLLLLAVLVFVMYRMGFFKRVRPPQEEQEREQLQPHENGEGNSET
Sequence of UniProt P06756 (P05106 27-788, form in doubt, chain 2 of 2, further chain): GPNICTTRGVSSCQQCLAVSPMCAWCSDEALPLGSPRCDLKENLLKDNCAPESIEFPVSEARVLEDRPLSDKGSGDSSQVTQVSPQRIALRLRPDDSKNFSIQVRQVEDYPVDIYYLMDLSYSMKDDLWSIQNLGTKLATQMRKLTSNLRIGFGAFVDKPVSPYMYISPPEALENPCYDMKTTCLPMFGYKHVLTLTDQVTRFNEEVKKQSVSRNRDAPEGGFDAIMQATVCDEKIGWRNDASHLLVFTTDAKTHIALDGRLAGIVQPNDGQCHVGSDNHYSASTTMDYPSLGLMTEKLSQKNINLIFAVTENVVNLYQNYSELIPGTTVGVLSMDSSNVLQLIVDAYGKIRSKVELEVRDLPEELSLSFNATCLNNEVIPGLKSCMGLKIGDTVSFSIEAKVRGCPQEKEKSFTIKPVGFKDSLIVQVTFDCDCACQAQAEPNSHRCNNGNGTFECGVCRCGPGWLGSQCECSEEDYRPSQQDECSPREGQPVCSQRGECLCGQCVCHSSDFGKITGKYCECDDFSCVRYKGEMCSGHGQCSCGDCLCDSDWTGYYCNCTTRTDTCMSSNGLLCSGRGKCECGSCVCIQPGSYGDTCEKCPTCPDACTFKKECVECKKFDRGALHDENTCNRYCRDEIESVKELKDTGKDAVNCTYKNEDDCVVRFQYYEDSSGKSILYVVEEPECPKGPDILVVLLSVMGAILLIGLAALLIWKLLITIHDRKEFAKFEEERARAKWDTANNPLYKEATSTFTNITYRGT

percent reduction of T4 binding to αVβ3 [1] [%]	percent reduction of T4 binding to αVβ3 [2] [%]	percent reduction of T4 binding to αVβ3 [3] [%]	percent reduction of T4 binding to αVβ3 [4] [%]	percent reduction of T4 binding to αVβ3 [5] [%]	percent reduction of [125I]T4-αVβ3 band intensity [6] [%]	percent reduction of [125I]T4-αVβ3 band intensity [7] [%]	percent reduction of [125I]T4-αVβ3 band intensity [8] [%]	percent reduction of [125I]T4-αVβ3 complex formation [9] [%]	Substance
58	46	47	20	59	–	–	–	–	monoclonal antibody SC7312 to αVβ3
–	–	–	–	–	63	64	81	52	monoclonal antibody LM609 to αVβ3
